Assay results reported in publication PMC9964254, “Caspase Inhibition Modulates Monocyte-Derived Macrophage Polarization in Damaged Tissues” (International Journal of Molecular Sciences, 2023).

Biological target: T1, p47^PHOX (83-390) (UniProt P14598 83-390)
T1 construct: p47^PHOX residues 83-390 (the first 82 amino acids deleted from the GST-p47^PHOX construct); Made from the GST-p47^PHOX construct (pGEX-6P-3); also called truncated p47^PHOX; p47^PHOX truncated at position 82; source: E. coli (BL21), purified with glutathione sepharose beads
T1 sequence (looked up): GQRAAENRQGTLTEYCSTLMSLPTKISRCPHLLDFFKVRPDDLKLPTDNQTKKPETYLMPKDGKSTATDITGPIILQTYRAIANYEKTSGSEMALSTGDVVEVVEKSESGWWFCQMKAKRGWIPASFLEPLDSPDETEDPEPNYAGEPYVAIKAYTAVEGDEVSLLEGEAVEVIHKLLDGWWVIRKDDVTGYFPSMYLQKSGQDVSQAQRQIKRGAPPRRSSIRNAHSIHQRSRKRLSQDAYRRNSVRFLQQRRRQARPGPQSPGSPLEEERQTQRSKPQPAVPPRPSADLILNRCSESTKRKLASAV
Assay: pull-down; 214 nM p47^PHOX proteins with 286 nM GST or GST-p22^PHOX (132-195), 30 min at 4 °C in PBS pH 7.4, 0.1% Triton X-100; glutathione sepharose beads 1 h at 4 °C, eluted with 10 mM glutathione, immunoblot with anti-p47^PHOX
Settings: both partners purified

- binding result: binds
B1: GST-p22^PHOX (132-195) (domain or fragment, UniProt P13498 132-195, looked up)
chain: TPIEPKPRERPQIGGTIKQPPSNPPPRPPAEARKKPSEEEAAVAAGGPPGGPQVNPIPVTDEVV
notes: p22^PHOX residues 132-195
